± gives the standard deviation of the averaged measurements.

This series is described as follows: total protein half-life in vivo (active degradation + dilution); higher = more stable protein.
Where [1] appears, read: E. coli NCM3722 delta-clpP delta-lon delta-hslV, growth: N-lim chemostat, doubling time 6 h.
[2] abbreviates: E. coli NCM3722 delta-clpP, growth: N-lim chemostat, doubling time 6 h.
Setting [3] is: E. coli NCM3722 delta-hslV, growth: N-lim chemostat, doubling time 6 h.
[4] abbreviates: E. coli NCM3722 delta-smpB, growth: N-lim chemostat, doubling time 6 h.
[5] abbreviates: wild type E. coli NCM3722, growth: C-lim chemostat, doubling time 3 h.
The mark [6] stands for this setting: wild type E. coli NCM3722, growth: N-lim chemostat, doubling time 6 h.
Where [7] appears, read: wild type E. coli NCM3722, growth: N-lim chemostat, doubling time 12 h.
Where [8] appears, read: wild type E. coli NCM3722, growth: P-lim chemostat, doubling time 6 h.
Setting [9] is: wild type E. coli NCM3722, growth: P-lim chemostat, doubling time 12 h.
[10] abbreviates: E. coli NCM3722 delta-lon, growth: N-lim chemostat, doubling time 6 h.
The mark [11] stands for this setting: wild type E. coli NCM3722, growth: C-lim chemostat, doubling time 12 h.
Setting [12] is: wild type E. coli NCM3722, growth: C-lim chemostat, doubling time 6 h.

As for “MDLQHWQAQFENWLKNHHQHQDAAHDVCHFRRVWATAQKLAADDDVDMLVILTACYFHDIVSLAKNHPQRQRSSILAAEETRRLLREEFEQFPAEKIEAVCHAIAAHSFSAQIAPLTTEAKIVQDADRLEALGAIGLARVFAVSGALGVALFDGEDPFAQHRPLDDKRYALDHFQTKLLKLPQTMQTARGKQLAQHNAHFLVEFMAKLSAELAGENEGVDHKVIDAFSSAG”, the “total protein half-life in vivo” value under setting [1] stood at 4.36 ± 0.052 h; the “total protein half-life in vivo” value under setting [2] was 3.48 ± 0.37 h; the “total protein half-life in vivo” value under setting [3] was determined as 2.72 h; the “total protein half-life in vivo” value under setting [4] turned out to be 2.92 ± 0.03 h; the “total protein half-life in vivo” value under setting [5] stood at 2.09 ± 0.078 h; the “total protein half-life in vivo” value under setting [6] amounted to 2.29 h. In addition, the “total protein half-life in vivo” value reads like this: under setting [7], 3.19 h; under setting [8], 2.83 ± 0.28 h; under setting [9], 4.67 ± 0.13 h.

For the sequence “MSANENNLIWIDLEMTGLDPERDRIIEIATLVTDANLNILAEGPTIAVHQSDEQLALMDDWNVRTHTASGLVERVKASTMGDREAELATLEFLKQWVPAGKSPICGNSIGQDRRFLFKYMPELEAYFHYRYLDVSTLKELARRWKPEILDGFTKQGTHQAMDDIRESVAELAYYREHFIKL [P0A784]”, the “total protein half-life in vivo” value is 4.86 ± 0.7 h under setting [2]; 4.688 ± 0.041 h under setting [3]; 6.132 ± 0.0019 h under setting [10]; 4.64 ± 0.34 h under setting [4]; 3.41 ± 0.36 h under setting [5]; 13 ± 1.9 h under setting [11]. The “total protein half-life in vivo” value by setting is: under setting [6], 4.65 ± 0.63 h; under setting [7], 8.25 ± 0.81 h; under setting [8], 5.87 ± 0.32 h; under setting [9], 13.6 ± 0.93 h.

With “MKRKVLLIPLIIFLAIAAALLWQLARNAEGDDPTNLESALIGKPVPKFRLESLDNPGQFYQADVLTQGKPVLLNVWATWCPTCRAEHQYLNQLSAQGIRVVGMNYKDDRQKAISWLKELGNPYALSLFDGDGMLGLDLGVYGAPETFLIDGNGIIRYRHAGDLNPRVWEEEIKPLWEKYSKEAAQ [P0AA86]”, the “total protein half-life in vivo” value was 6.39 ± 0.1 h under setting [1]; 6.09 ± 0.34 h under setting [4]; 3 ± 0.084 h under setting [5]; 6.112 ± 0.034 h under setting [12]; 13.3 ± 1.2 h under setting [11]; 6.16 ± 0.32 h under setting [6]. The “total protein half-life in vivo” value under setting [8] came out at 5.3 h and the “total protein half-life in vivo” value under setting [9] worked out at 12.5 ± 1.7 h.

For the sequence “MSEALLNAGRQTLMLELQEASRLPERLGDDFVRAANIILHCEGKVVVSGIGKSGHIGKKIAATLASTGTPAFFVHPAEALHGDLGMIESRDVMLFISYSGGAKELDLIIPRLEDKSIALLAMTGKPTSPLGLAAKAVLDISVEREACPMHLAPTSSTVNTLMMGDALAMAVMQARGFNEEDFARSHPAGALGARLLNKVHHLMRRDDAIPQVALTASVMDAMLELSRTGLGLVAVCDAQQQVQGVFTDGDLRRWLVGGGALTTPVNEAMTVGGTTLQSQSRAIDAKEILMKRKITAAPVVDENGKLTGAINLQDFYQAGII”, the “total protein half-life in vivo” value under setting [1] turned out to be 5.02 ± 0.39 h; the “total protein half-life in vivo” value under setting [2] was 4.77 ± 0.57 h; the “total protein half-life in vivo” value under setting [3] was 4.52 ± 0.3 h; the “total protein half-life in vivo” value under setting [10] was 4.85 ± 0.39 h; the “total protein half-life in vivo” value under setting [4] stood at 4.33 ± 0.28 h; the “total protein half-life in vivo” value under setting [5] was 3.14 ± 0.043 h. In addition, the “total protein half-life in vivo” value was found to be 5.34 ± 0.49 h under setting [12]; 9.87 ± 2.3 h under setting [11]; 4.55 ± 0.18 h under setting [6]; 7.014 ± 0.018 h under setting [7]; 5.2 ± 0.36 h under setting [8]; 12.3 ± 0.49 h under setting [9].

Regarding “MKLAACFLTLLPGFAVAASWTSPGFPAFSEQGTGTFVSHAQLPKGTRPLTLNFDQQCWQPADAIKLNQMLSLQPCSNTPPQWRLFRDGEYTLQIDTRSGTPTLMISIQNAAEPVASLVRECPKWDGLPLTVDVSATFPEGAAVRDYYSQQIAIVKNGQIMLQPAATSNGLLLLERAETDTSAPFDWHNATVYFVLTDRFENGDPSNDQSYGRHKDGMAEIGTFHGGDLRGLTNKLDYLQQLGVNALWISAPFEQIHGWVGGGTKGDFPHYAYHGYYTQDWTNLDANMGNEADLRTLVDSAHQRGIRILFDVVMNHTGYATLADMQEYQFGALYLSGDEVKKSLGERWSDWKPAAGQTWHSFNDYINFSDKTGWDKWWGKNWIRTDIGDYDNPGFDDLTMSLAFLPDIKTESTTASGLPVFYKNKMDTHAKAIDGYTPRDYLTHWLSQWVRDYGIDGFRVDTAKHVELPAWQQLKTEASAALREWKKANPDKALDDKPFWMTGEAWGHGVMQSDYYRHGFDAMINFDYQEQAAKAVDCLAQMDTTWQQMAEKLQGFNVLSYLSSHDTRLFREGGDKAAELLLLAPGAVQIFYGDESSRPFGPTGSDPLQGTRSDMNWQDVSGKSAASVAHWQKISQFRARHPAIGAGKQTTLLLKQGYGFVREHGDDKVLVVWAGQQ”, the “total protein half-life in vivo” value is 4.78 ± 0.17 h under setting [1]; 7.23 ± 0.88 h under setting [2]; 4.97 h under setting [3]; 7.45 h under setting [10]; 5.36 ± 0.33 h under setting [4]; 3.262 ± 0.0075 h under setting [5]. Further, the “total protein half-life in vivo” value under setting [12] was 6.26 ± 0.66 h; the “total protein half-life in vivo” value under setting [6] turned out to be 5.75 h; the “total protein half-life in vivo” value under setting [7] amounted to 9.72 h; the “total protein half-life in vivo” value under setting [8] was 7.07 h; the “total protein half-life in vivo” value under setting [9] was 9.37 ± 2.8 h.

Consider “MLKLLKTIMRAGTATVKYPFAPLEVSPGFRGKPDLMPSQCIACGACACACPANALTIQTDDQQNSRTWQLYLGRCIYCGRCEEVCPTRAIQLTNNFELTVTNKADLYTRATFHLQRCSRCERPFAPQKTIALAAELLAQQQNAPQNREMLWAQASVCPECKQRATLINDDTDVLLVAKEQL”, for which, under setting [1], the “total protein half-life in vivo” value came to 4.78 h.

As to “MTKLKLLALGVLIATSAGVAHAEGKFSLGAGVGVVEHPYKDYDTDVYPVPVINYEGDNFWFRGLGGGYYLWNDATDKLSITAYWSPLYFKAKDSGDHQMRHLDDRKSTMMAGLSYAHFTQYGYLRTTLAGDTLDNSNGIVWDMAWLYRYTNGGLTVTPGIGVQWNSENQNEYYYGVSRKESARSGLRGYNPNDSWSPYLELSASYNFLGDWSVYGTARYTRLSDEVTDSPMVDKSWTGLISTGITYKF [P0A908]”, the “total protein half-life in vivo” value is 6.14 ± 1.1 h under setting [1]; 7.17 ± 0.13 h under setting [2]; 6.01 ± 1.1 h under setting [3]; 6.05 ± 1 h under setting [10]; 5.96 ± 0.079 h under setting [4]; 2.55 ± 0.14 h under setting [5]. Further, the “total protein half-life in vivo” value runs as follows: under setting [12], 5.81 ± 0.46 h; under setting [11], 13.6 ± 2.3 h; under setting [6], 6.35 ± 0.63 h; under setting [7], 14 ± 1.4 h; under setting [8], 5.7 ± 0.23 h.

Source of the values: the supplement of paper PMC11246515.
